In article PMC10397247:
Values belong to the binder of their own block, whether it stands above or below them.

Key:
4H2586-bH = molecular target: T1, 4H2586-bH; test: two-hybrid library CCNG1;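 note: natural log of median RNA to DNA barcode read ratio; higher means stronger binding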
T1 chain: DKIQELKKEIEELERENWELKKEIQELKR

4H2627-bH = molecular target: T2, 4H2627-bH; test: two-hybrid library CCNG1;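 note: natural log of median RNA to DNA barcode read ratio; higher means stronger binding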
T2 chain: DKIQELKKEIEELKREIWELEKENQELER

4H2673-bH = molecular target: T3, 4H2673-bH; test: two-hybrid library CCNG1;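 note: natural log of median RNA to DNA barcode read ratio; higher means stronger binding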
T3 chain: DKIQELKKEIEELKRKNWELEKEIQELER

4H2702-bH = molecular target: T4, 4H2702-bH; test: two-hybrid library CCNG1;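 note: natural log of median RNA to DNA barcode read ratio; higher means stronger binding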
T4 chain: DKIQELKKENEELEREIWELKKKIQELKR

4H3010-bH = molecular target: T5, 4H3010-bH; test: two-hybrid library CCNG1;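 note: natural log of median RNA to DNA barcode read ratio; higher means stronger binding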
T5 chain: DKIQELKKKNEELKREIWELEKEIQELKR

4H3112-bH = molecular target: T6, 4H3112-bH; test: two-hybrid library CCNG1;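 note: natural log of median RNA to DNA barcode read ratio; higher means stronger binding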
T6 chain: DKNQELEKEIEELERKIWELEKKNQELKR

4H3354-bH = molecular target: T7, 4H3354-bH; test: two-hybrid library CCNG1
T7 chain: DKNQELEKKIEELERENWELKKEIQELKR

4H3427-bH = molecular target: T8, 4H3427-bH; test: two-hybrid library CCNG1
T8 chain: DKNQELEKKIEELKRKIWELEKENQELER

4H346-bH = molecular target: T9, 4H346-bH; test: two-hybrid library CCNG1
T9 chain: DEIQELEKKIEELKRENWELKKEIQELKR

4H370-bN = molecular target: T10, 4H370-bN; test: two-hybrid library CCNG1
T10 chain: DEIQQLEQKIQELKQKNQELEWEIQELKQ

4H3926-bH = molecular target: T11, 4H3926-bH; test: two-hybrid library CCNG1
T11 chain: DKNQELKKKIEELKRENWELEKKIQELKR

4H4073-bH = molecular target: T12, 4H4073-bH; test: two-hybrid library CCNG1
T12 chain: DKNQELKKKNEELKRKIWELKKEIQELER

4H457-bH = molecular target: T13, 4H457-bH; test: two-hybrid library CCNG1
T13 chain: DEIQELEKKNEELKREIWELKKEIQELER

4H575-bH = molecular target: T14, 4H575-bH; test: two-hybrid library CCNG1
T14 chain: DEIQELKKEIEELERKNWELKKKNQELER

4H683-bH = molecular target: T15, 4H683-bH; test: two-hybrid library CCNG1
T15 chain: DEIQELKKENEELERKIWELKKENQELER

4H754-bH = molecular target: T16, 4H754-bH; test: two-hybrid library CCNG1
T16 chain: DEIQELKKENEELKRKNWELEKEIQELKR

4H780-bH = molecular target: T17, 4H780-bH; test: two-hybrid library CCNG1
T17 chain: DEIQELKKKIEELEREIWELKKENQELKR

4H797-bH = molecular target: T18, 4H797-bH; test: two-hybrid library CCNG1
T18 chain: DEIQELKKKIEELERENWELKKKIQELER

4H855-bH = molecular target: T19, 4H855-bH; test: two-hybrid library CCNG1
T19 chain: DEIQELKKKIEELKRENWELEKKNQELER

4H918-bH = molecular target: T20, 4H918-bH; test: two-hybrid library CCNG1
T20 chain: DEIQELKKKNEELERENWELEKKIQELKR

4H953-bH = molecular target: T21, 4H953-bH; test: two-hybrid library CCNG1
T21 chain: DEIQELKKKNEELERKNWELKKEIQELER

4H968-bH = molecular target: T22, 4H968-bH; test: two-hybrid library CCNG1
T22 chain: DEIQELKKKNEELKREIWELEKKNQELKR

P4mS = molecular target: T23, P4mS; test: two-hybrid library CC1
T23 chain: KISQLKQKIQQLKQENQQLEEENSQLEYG

P5SC1 = molecular target: T24, P5SC1; test: two-hybrid library CC1; settings: mean of both orientations
T24 chain: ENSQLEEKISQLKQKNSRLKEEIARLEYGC

P5SC2 = molecular target: T25, P5SC2; test: two-hybrid library CC1; settings: mean of both orientations
T25 chain: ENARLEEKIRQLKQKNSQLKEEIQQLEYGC

P5 = molecular target: T26, P5; test: two-hybrid library CC1; settings: mean of both orientations
T26 chain: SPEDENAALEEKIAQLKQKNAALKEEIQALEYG

P5mS = molecular target: T27, P5mS; test: two-hybrid library CC1; settings: mean of both orientations
T27 chain: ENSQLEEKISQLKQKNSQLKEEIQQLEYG

P6SC1 = molecular target: T28, P6SC1; test: two-hybrid library CC1; settings: mean of both orientations
T28 chain: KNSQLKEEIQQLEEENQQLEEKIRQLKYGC

P6SC2 = molecular target: T29, P6SC2; test: two-hybrid library CC1; settings: mean of both orientations
T29 chain: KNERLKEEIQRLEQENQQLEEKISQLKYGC

P6 = molecular target: T30, P6; test: two-hybrid library CC1; settings: mean of both orientations
T30 chain: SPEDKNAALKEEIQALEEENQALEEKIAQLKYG

P6mS = molecular target: T31, P6mS; test: two-hybrid library CC1; settings: mean of both orientations
T31 chain: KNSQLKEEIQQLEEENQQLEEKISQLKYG

P7 = molecular target: T32, P7; test: two-hybrid library CC1; settings: mean of both orientations
T32 chain: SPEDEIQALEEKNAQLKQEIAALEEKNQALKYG

P7mS = molecular target: T33, P7mS; test: two-hybrid library CC1; settings: mean of both orientations
T33 chain: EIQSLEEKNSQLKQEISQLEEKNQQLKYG

P8 = molecular target: T34, P8; test: two-hybrid library CC1; settings: mean of both orientations
T34 chain: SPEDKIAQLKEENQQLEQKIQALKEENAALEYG

P8mS = molecular target: T35, P8mS; test: two-hybrid library CC1; settings: mean of both orientations
T35 chain: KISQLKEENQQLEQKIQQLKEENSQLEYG

P9 = molecular target: T36, P9; test: two-hybrid library CC1; settings: mean of both orientations
T36 chain: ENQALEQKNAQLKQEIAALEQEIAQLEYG

4H4073-bA = molecular target: T37, 4H4073-bA; test: two-hybrid library CCNG1
T37 chain: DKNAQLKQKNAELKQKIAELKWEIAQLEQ

4H457-bA = molecular target: T38, 4H457-bA; test: two-hybrid library CCNG1
T38 chain: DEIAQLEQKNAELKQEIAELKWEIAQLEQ

4H575-bA = molecular target: T39, 4H575-bA; test: two-hybrid library CCNG1
T39 chain: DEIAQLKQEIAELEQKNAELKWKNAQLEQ

4H683-bA = molecular target: T40, 4H683-bA; test: two-hybrid library CCNG1
T40 chain: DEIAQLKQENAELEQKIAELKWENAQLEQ

4H754-bA = molecular target: T41, 4H754-bA; test: two-hybrid library CCNG1
T41 chain: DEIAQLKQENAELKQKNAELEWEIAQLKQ

4H780-bA = molecular target: T42, 4H780-bA; test: two-hybrid library CCNG1
T42 chain: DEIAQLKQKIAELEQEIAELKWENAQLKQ

4H797-bA = molecular target: T43, 4H797-bA; test: two-hybrid library CCNG1
T43 chain: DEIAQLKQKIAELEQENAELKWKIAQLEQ

4H855-bA = molecular target: T44, 4H855-bA; test: two-hybrid library CCNG1
T44 chain: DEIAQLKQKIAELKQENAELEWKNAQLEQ

4H918-bA = molecular target: T45, 4H918-bA; test: two-hybrid library CCNG1
T45 chain: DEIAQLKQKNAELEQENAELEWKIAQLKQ

4H949-bN = molecular target: T46, 4H949-bN; test: two-hybrid library CCNG1
T46 chain: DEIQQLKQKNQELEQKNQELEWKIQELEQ

4H953-bA = molecular target: T47, 4H953-bA; test: two-hybrid library CCNG1
T47 chain: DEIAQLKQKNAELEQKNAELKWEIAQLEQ

4H968-bA = molecular target: T48, 4H968-bA; test: two-hybrid library CCNG1
T48 chain: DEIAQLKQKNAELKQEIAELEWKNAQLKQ

P3mSN = molecular target: T49, P3mSN; test: two-hybrid library CCNG1
T49 chain: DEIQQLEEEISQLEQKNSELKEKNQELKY

interaction score (4H2586-bH): 1.34
interaction score (4H2627-bH): 0.688
interaction score (4H2673-bH): 1.76
interaction score (4H2702-bH): 0.0111
interaction score (4H3010-bH): 0.779
interaction score (4H3112-bH): -1.96
interaction score (4H3354-bH): 0.825
interaction score (4H3427-bH): 0.762
interaction score (4H346-bH): 0.563
interaction score (4H370-bN): 0.548
interaction score (4H3926-bH): 1.73
interaction score (4H4073-bH): 0.357
interaction score (4H457-bH): -0.749
interaction score (4H575-bH): 0.499
interaction score (4H683-bH): 0.126
interaction score (4H754-bH): -0.599
interaction score (4H780-bH): -1.12
interaction score (4H797-bH): 0.65
interaction score (4H855-bH): 0.679
interaction score (4H918-bH): -0.131
interaction score (4H953-bH): 0.313
interaction score (4H968-bH): -0.864
Binder: DKIQELKKEIEELERENWELKKEIQELKR [4H2586-bH]

Binder: KISQLKQKIQQLKQENQQLEEENSQLEYG [P4mS]
interaction score (P4mS): -3.22
interaction score (P5SC1): -2.92
interaction score (P5SC2): -2.82
interaction score (P5): -3.02
interaction score (P5mS): -2.9
interaction score (P6SC1): -2.65
interaction score (P6SC2): -2.64
interaction score (P6): -2.75
interaction score (P6mS): -3
interaction score (P7): -2.78
interaction score (P7mS): -2.94
interaction score (P8): -2.9
interaction score (P8mS): -2.9
interaction score (P9): -2.65

interaction score (4H4073-bA): -0.968
interaction score (4H457-bA): -1.06
interaction score (4H575-bA): -1.51
interaction score (4H683-bA): -0.684
interaction score (4H754-bA): -1.31
interaction score (4H780-bA): -1.4
interaction score (4H797-bA): -1.27
interaction score (4H855-bA): -1.17
interaction score (4H918-bA): -0.789
interaction score (4H949-bN): -1.71
interaction score (4H953-bA): -1.91
interaction score (4H968-bA): -1.01
interaction score (P3mSN): -4.32
Binder: DKNAQLKQKNAELKQKIAELKWEIAQLEQ [4H4073-bA]
